# Assay: yeast display, Sf9 membrane polyspecificity reagent, FACS + sequencing; frameworks hold sequencing errors
# Summary of the method: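 A nanobody's polyreactivity label depends on the gate it was sorted from. Yeast display cells were stained with 10% biotinylated, detergent-solubilized Sf9 membrane reagent for 1 hour at 4 °C, enriched on streptavidin microbeads and sorted by FACS. The low and high (top ~1%) gates were set on anti-HA fluorescence for expression and streptavidin fluorescence for reagent binding.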
row,Sequence,polyreactivity (PSR sort gate)
1,QVQLVESGGGLVQAGGSQRLSCAASGSIFDLKAMGSYRQAPGKERELVAAISSGGGTYYADSVKGRFTISRDNAKNTVYLQMNSLKPEDTAVYYCNRVTRWTYNYWGQGTQVTVSS,high polyreactivity
2,QVQLVESGGGLVQAGGSRLICAASGLIFIWYTMGWYRQAPGKERELVAAIDSSGGNTYYADSLKGRFSISRDNAKNTVYLQMNSLKPEDTAVYYCAKDVGHGAGNLMGYWGQGTQVTVSS,low polyreactivity
3,QVQLVESGGGLVQAGGSRLSCAASGLIFISYTMGWYRQAPGKERELVAAIDSSGGNTYYADSVKGRFTISRDNAKNTVYLQMNSLKPDDTAVYYCNAAWPYKSVEYCGQGTQVTVSS,low polyreactivity
4,QVQLVESGGGLVQAGGSRRLSCAAAGISFGWYSMGWYRQAPGKERELVATISQSGTSTYYADSVKGRFTISRDNAKNTVYLQMNSLKPEDTAVYYCAADYIRGYYYRVPLEVDYWGQGNQVTVSS,low polyreactivity
5,QVQLVESGGGLVQAGGSRRLSCAASGFMFGVNAMGWYRQAPGKERELVAVISVRGGSTYYADSLKGRFTISRDNAKNTVYLQMNSLKPEDTAVYYCAADTFAGYYYWGQGTQVTVSS,high polyreactivity
6,QVQLVESGGGLVQAGGSRRLSCAASGFTFPHYLGRYRQAPGKERELVAAIIVSGGSTSYADSVKGRFTMSRDNAKNTVYLQMNSLKPEDTAVYYCAKDLRFRLFSYPSDYWGQGTQVTVSS,low polyreactivity
7,QVQLVESGGGLVQAGGSRRLSCAASGNTFYGYAMGWYRQAPGKERELVASITMSGDSTYYADSVKGRFTISRDNAKNTVYLQMNSLKPEYTSVYYCAGVYTYPLGYYHYTYDYWGQGTQVTVSS,low polyreactivity
8,QVQLVESGGGLVQAGGSRRLSCAASGRIFRGYAMGWYRQAPGKERELVAAISASGGSTYYADSVKGRYTISRDIAKNTVYLLMISLKQVDTAVYYCATGGYARYDFWGQGTQVTVSS,high polyreactivity
9,QVQLVESGGGLVQAGGSRRLSCAASGRTFVSNVMGWYRPAPGKDRELVAAINWSGDSTYYADSVKGRFTISRDNAKNTVYLQMNSLKPEDTAGYYCAVQGGYFDTWDGDYWGQGTQVTVSS,low polyreactivity
10,QVQLVESGGGLVQAGGSRRLSCAASGSIFPVYAMGWYRQAPGKERELVASISTGGSTYYADSVKGRFTISRDNAKNTVYFQLNSLKPEDTAVYYCAATGWAYGYGYGYWGQGTQVTESS,low polyreactivity
11,QVQLVESGGGLVQAGGSRRLSCAASGSIFSGNTMGWYRQAPGKERELVAAISSGGSTKYADSVKGRFTISRDNAKNTVYFQMNRLNPEDSAVYFCGATSSYRLRDRHRIWYGYWGQGTEVTVSS,high polyreactivity
12,QVQLVESGGGLVQAGGSRRLSCAASGSIFVKYAMGWYRQAPGKERELVAAKSQSGVRTYYADSVKGRFTISRDNAKNTVYLQMNSLTPEDTAVYYCAAYSGYYYWGQGTQVTVSS,high polyreactivity
13,QVQLVESGGGLVQAGGSRRLSCAASGSIFYTYLMGWYRPAPGTDRELVAAISASGVRTYYADSVKGRFTISRDNAKITVYLEMNSLKPEDTAVYYCAADRQRADYYWGQGRQVTVSS,high polyreactivity
14,QVQLVESGGGLVQAGGSRRLSCAATGRTFGRYSMGWDRQAPGKERELVAAITTIGGSTYYADSVKGRFTISRDNAKNTVYLQMNSLKTEDTAVYYCAAGWVTNSDGMDYWGQGTQVTVSS,low polyreactivity
15,QVQLVESGGGLVQAGGSRRLSCAPSGKIFGSNAMGSYRQAPGKERELVAAISKSCGRTYYADSVKGRFTISRDNAKNTVYLQMNCLKPEDSAVYYCGAYDGYYEFDYWGQGTQVPVSS,low polyreactivity
16,QVQLVESGGGLVQAGGSRRLSFAASGFTFKYYAMGWYRQAPGKERELVDAISRRGGSTSYADSVKGRFTISRDNAKNTVYLKMNSLKPEDTSVYYLAADSSFERSSDYWGQGTQVTVSS,high polyreactivity
17,QVQLVESGGGLVQAGGSVRLSCAASGFIISYYAMGWYRQAPGKERELFAAISWSGGSTYYADSVKGSFTISRDNAKNTVYLQMNSLKPEDTAVYYCAADFLYGAEGNDYWGQGTQVTVSS,high polyreactivity
18,QVQLVESGGGLVQAGGSVRLSCAASGFTFGYYAMGWYRQAPGKERELVASISSVDNTYYADSVKGRFTISRDNAKNTVSFQMNSLKPEDTAVDYCAARYRDYFVRGGYWGQGTQVSVSS,high polyreactivity
19,QVQLVESGGGLVQAGGSVRLSCAASGGTFKANAMGWYRQAPGKERELVAAISWSGGSTYYADSVKGRFTISRDNAKNSVYLQMNSLKPEDTAVYYCRYWKYRSYDYWGQGTQVTVSS,high polyreactivity
20,QVQLVESGGGLVQAGGSVRLSCAASGRIFGIYAMGWYRQAPGKERELVAAITWIGGRTYYADSVKGRFTISRDNAKNTVYLQMNSLKPEDTAVYYCNAVYTQRFATYRRYDYWGQGTQVTVSS,high polyreactivity
21,QVQLVESGGGLVQAGGTLRFSCAASGFTFYVYAMGWYRQAPGKERELVAAISKSGGSTYYADSVKGRFTISRDNAKNTVYLQMNSLKPEDTAVYYCAVYDKRSGYRGGHRYNSWGQGTQVTVSS,high polyreactivity
22,QVQLVESGGGLVQAGGTLRFSCAASGLTIDRYAMGWYRQAPGKERELVAAISFTGDRTYYADSVKGRFTISRDNAKNTVYLQMNSLKPEDTAVYYCAVRRYGYRKYDSWGQGTQVTVSS,high polyreactivity

row,Sequence,polyreactivity (PSR sort gate)
1,QVQLVESGGGLVQAGGTLRLICAASGSIFGYYTMGWYRQASGKERELVAAITSGGSTNYADSVKGRFTISRDNAKNTVYLQMNSLKPEDTAVYYCATVSYYPWRYDYWGQGTQGTVSS,low polyreactivity
2,QVQLVESGGGLVQAGGTLRLSCAASGFTFAVYAMGWYRQAPGKERELVAAISRSGTRTYYADSVKGRFTISRDNSKNPVYIQMNSLKPEDTAVYYCAADKYRNGYDYWGQGTQVTVSS,low polyreactivity
3,QVQLVESGGGLVQAGGTLRLSCAASGFTLSVYAMGWYIQAPGKDRELVAAITRSTGSTYYADSVKGRFTISRDNAKNTVYLQMNSLKPEDTAVYYCNAGHFAHHHGYYRSKYDYWGQGTQVTVSS,low polyreactivity
4,QVQLVESGGGLVQAGGTLRLSCAASGGIFVANAMGWYRQAPGKERELVAAISRSGGSTYYADSVKGRFTISRDNAKNTVYLQMNSLKPEDTAVYYCAAKSRRQYTVGLTSDYWGQGTQVTVSS,high polyreactivity
5,QVQLVESGGGLVQAGGTLRLSCAASGGTFVSRAMGWYRQAPGKERELVAAISFSGDSTYYADSVKGRFTISRDNAKNTVYLQMNSLKPEDTAVYYCRFYSYWSWLGREYDYWGQGTQVTVSS,low polyreactivity
6,QVQLVESGGGLVQAGGTLRLSCAASGMTFSRNGMGWYRQAPGKEREVVADISYRGGRTYYADSVKGRFTFSRDNAKNTVYLQMHSLKPEDTAVYYCNAVFLVGVGPTSDYWGQRTQVTVSS,high polyreactivity
7,QVQLVESGGGLVQAGGTLRLSCAASGRIFFSYAMGWYRQAPGKERELVAAITYSGGSTYYADSVKGRFTISRDNAKNTVYLQKNSLKPEDTAVYYCNAELYEKYDYWGQGTQVTLSS,low polyreactivity
8,QVQLVESGGGLVQAGGTLRLSCAASGRIFFTNAMRRYRQASGKESELVAAISKSGARTYYADSVKGRFTISRDNAKNTVYLQMNSLKPEDTAVYYCAGDVSVAGYYYWGEGTQVTVSS,high polyreactivity
9,QVQLVESGGGLVQAGGTLRLSCAASGRIFPYYAMGWYRQAPGKERELVAAINSGGSTYYADSVKGRFTISRDNEKNTVYLQMNSLKPEDSAVYYCAVDPGYYDEYNYWGEGTQVTVSS,low polyreactivity
10,QVQLVESGGGLVQAGGTLRLSCAASGRTFNTYAMGWYRLAPGKERELVAAITVPGGSTYYADSVKGRFTLSRDNAKNTVYLQMNSLKPADTAVYYCAAERPPDGYLVVGYVSTQYYYWGQGTQVTVSS,low polyreactivity
11,QVQLVESGGGLVQAGGTLRLSCAASGRTFTYYAMGWYRQAPGKERELVATIRSGGTTNYADSVKGRFTISRDNAKNTVYLQMNSLKPEDTAEYYCARVLSYVWYYRDPYQYPDYDFWGQGTQVTGSS,low polyreactivity
12,QVQLVESGGGLVQAGGTLRLSCAASGRTFVPYAMGWYRQAPGKERELVATISSSGGSTYYADSVKGRFTISRDNSKNTVYLQMNSLKPEDTAVYYCATADRWSSSYYRSVRWYHYDYWGQGTQVTVSS,low polyreactivity
13,QVQLVESGGGLVQAGGTLRLSCAASGRTIRNYARGRYRQAPVKERELVAAITWSGGSTYYADSVKGRFTISRDNAKNTVYLQMNSLKPEDTAVYYCNVRYYTRTYNYWGQGTQVTVSS,high polyreactivity
14,QVQLVESGGGLVQAGGTLRLSCAASGSIFNPYAMGWYRQAPGKDRELVATITRPGRTNYADSVKGRFTISRDHAENTVYLQMNSLKPEDTAVYYCAAYTSYGVYYWGQGTQVTVSS,high polyreactivity
15,QVQLVESGGGLVQAGGTLRLSCAASGSIFYGNAMGWYREAPGKERQLVAAIDGTGASTYYADSVKGRFTISRDNAKNPVYLQMNSLKPEDTAVYYCNKALTSKDYPVRTVERDYWGQGTQVTVSS,low polyreactivity
16,QVQLVESGGGLVQAGGTLRLSCAASGSTFRYNAMGWYRQEPGKEWELVAAITDSGSSTYYADSVKGRFTISRDNAKNTVYLQMNSLKPEDTAVYYCAAAGSRYAWGYVYWGQGTQVTVSS,high polyreactivity
17,QVQLVESGGGLVQAGGTLRLSCAASGSTFSYNAMGWYRQAPGKERELVAAISGSGGRTYYADSVKGRFTISRDNAKNTVYLQMNSLKPEDTAVYYCAARVGAGWSPKYDYWGQGTQVTVSS,high polyreactivity
18,QVQLVESGGGLVQAGGTLRLSCAASGSTFVYNAMGWYRQAPGKERDLVATITGGGSTYYADSVKGRFTISRDNAKNTVYLQMNSLKPEDTAVYYCSKRRDSYDVEYDYWGQGTQVTVSS,low polyreactivity
19,QVQLVESGGGLVQAGGTLRLSCAASGYIFVIYAMGWYRQAPGKEREWVAAISWSGDTTYYADSVKGRFTISRDNAKNTVYLQMNSLKPEDTAVYYCNAETAYYQVDYWGQGTQVTVSS,low polyreactivity
20,QVQLVESGGGLVQAGGTLRLSCAPSGSIFGDYVMGWYRQAPGKEWELVAAINRGGSTYYADSVKGRFTISRDNAKNTVYLQMKSLKPEDTAVYYCAAGYPSWYYGYPYDSWGQGTQVTVSS,low polyreactivity
21,QVQLVESGGGLVQAGGTLRLSCAPSGSTFFPYAMGWYRQAPGKEREFVSAIRGSGGVSTYYADSVKGRFTISRDNAKNTVYLQMNSLKPEDTAVYYCAKYVARRVPRGFYYWGQGTQVTVSS,high polyreactivity

# Source: the nanobody polyreactivity screen of Harvey et al. (2022)
